# Experimental data reported in PMC9174178 (Cell Reports, 2022).
# Target: SARS-CoV-2 spike HexaPro (S) (SARS-CoV-2 (Wuhan-Hu-1), UniProt P0DTC2, stabilised)
# Assay: cryo-EM structure
row,Binder,binding result
1,psNb 2-67 (VHH) VHH: EVQLVESGGGLVQTGGSLRLSCALSGYTFSIFPTAWFRQAPGKEREFVAGIRWNGSTRDYTEYADFVKGRFTISRDNAKNMVYLQMISLKPEDTALYYCAASDGVIDGTNANAYRYWGQGTQVTVSS,binds
2,psNb 2-34 (VHH) VHH: HVQLVESGGGLVQAGGSLRLSCAASGRTFSRYAAGWFRQAPGKEREFVAVIEWDGDSAYYADPVKGRFTISRDNAKNTVYLQMNRLKPEDTAVYICAVGGNHYSRSKYYNLDEYDDWGQGTQVTVSS,binds
3,psNb 2-38 (VHH) VHH: QVQLVESGGGLVQAGGSLRLSCAAAARFSTSAMGWFRQAPGKEREFVAAISWSNTNTHYADTVKGRFTISADTAKETVDLQMNSLKPEDTAVYYCVQGGWGIRQPIIVDYWGKGTQVTVSS,binds
4,psNb 2-57 (VHH) VHH: QVQLVESGGGLVQAGGSLRLSCAVSGRTISTFGMGWFRQAPGKEREFVATITRDEDMLLYADSVKGRFTISRDTAKNMVFLQMNSLKIEDTALYYCAVRRDSSWGYSRQSTEYDYWGQGTQVTVSS,binds
5,psNb 1-8 (VHH) VHH: QVQLVESGGGLVQTGGSLRLSCAASGRTFSNYVMGWFRQAPGKEREFVSSIEWNSENTFYANSVKGRFTISRDNAKNTVYLQMNSLKAEDTAVYYCAADRGSSYYYTRASEYTYWGQGTQVTVSS,binds
6,psNb 1-22 (VHH) VHH: HVQLVESGGGLVQPGGSLRLSCAASGRSFNSYLMGWFRQAPGKEREFVAWISGSPHDIIRYRDSVKDRFTISRDNAKNTVYLQMNSLKPVDTAVYYCAVGSLRVGSFSPDYWGQGTQVTVSS,binds
7,psNb 1-23 (VHH) VHH: QVQLVESGGGLVQAGGSLRLSCAASGRTDSISDMGWFRQAPGKEREFVAVVGWSGGGTDYAHSVKGRFTISRDNAKNTVYLQMNSLKPEDTAVYYCAVGSLRVGSFSVEYWGQGTQVTVSS,binds
8,psNb 2-65 (VHH) VHH: HVQLVESGGGLVQAGGSLRLSCAASGTISTLNAMGWYRQAPGKQRELLASISNLGTTYHADSVAGRFTISRGSAKNTVNLQMNSLKPDDTAVYYCNTRVLEGGTQIRDYWGQGTQVTVSS,binds
9,psNb 2-45 (VHH) VHH: QVQLVESGGGLVQAGGSLRLSCTASGYDFSILAIAWYRQAPGKERELVAAISRVGSTDYADSVKGRFTISRDNTKNTVSLQMDSLKPEDTAVYYCNAGIPMTTVLSGLGFWGQGTQVTVSS,binds
